Reference: US20260028399A1

How the values were obtained:
[1] = target: T1, human TIGIT (human) (UniProt Q495A1); experiment: phage ELISA on coated TIGIT (4 ug/ml), phage 3 x 10^9 pfu/ml, anti-M13-HRP/TMB
T1 sequence: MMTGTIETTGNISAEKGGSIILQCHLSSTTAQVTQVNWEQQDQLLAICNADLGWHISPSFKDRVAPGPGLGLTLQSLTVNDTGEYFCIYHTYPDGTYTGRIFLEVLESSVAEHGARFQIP

[2] = target: T2, human CD96 (human) (UniProt P40200); experiment: phage ELISA on coated CD96 (4 ug/ml), phage 2.5 x 10^10 pfu/ml, anti-M13-HRP/TMB
T2 sequence: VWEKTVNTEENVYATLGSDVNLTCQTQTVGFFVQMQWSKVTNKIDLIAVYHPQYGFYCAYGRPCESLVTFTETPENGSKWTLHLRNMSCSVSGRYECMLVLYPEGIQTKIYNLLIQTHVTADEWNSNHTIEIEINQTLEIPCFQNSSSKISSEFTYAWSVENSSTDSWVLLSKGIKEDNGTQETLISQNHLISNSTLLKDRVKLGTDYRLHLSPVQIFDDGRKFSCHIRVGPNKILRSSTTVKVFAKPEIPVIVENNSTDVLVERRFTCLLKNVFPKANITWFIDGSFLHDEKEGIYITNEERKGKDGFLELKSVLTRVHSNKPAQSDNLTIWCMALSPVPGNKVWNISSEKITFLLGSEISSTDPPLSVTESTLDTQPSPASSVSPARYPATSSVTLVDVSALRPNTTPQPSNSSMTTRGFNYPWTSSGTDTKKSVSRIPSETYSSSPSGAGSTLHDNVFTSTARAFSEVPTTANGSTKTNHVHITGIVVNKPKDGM

[3] = target: T2, human CD96 (human); experiment: phage ELISA on coated CD96 (4 ug/ml), phage 0 pfu/ml (no phage, background), anti-M13-HRP/TMB
[4] = target: T2, human CD96 (human); experiment: phage ELISA on coated CD96 (4 ug/ml), phage 3.7 x 10^8 pfu/ml, anti-M13-HRP/TMB
[5] = target: T2, human CD96 (human); experiment: phage ELISA on coated CD96 (4 ug/ml), phage 5 x 10^10 pfu/ml, anti-M13-HRP/TMB
[6] = target: T1, human TIGIT (human); experiment: phage ELISA on coated TIGIT (4 ug/ml), phage 6 x 10^9 pfu/ml, anti-M13-HRP/TMB
[7] = target: T1, human TIGIT (human); experiment: phage ELISA on coated TIGIT (4 ug/ml), phage 1 x 10^11 pfu/ml, anti-M13-HRP/TMB
[8] = target: T2, human CD96 (human); experiment: phage ELISA on coated CD96 (4 ug/ml), phage 9 x 10^7 pfu/ml, anti-M13-HRP/TMB
[9] = target: T1, human TIGIT (human); experiment: phage ELISA on coated TIGIT (4 ug/ml), phage 5 x 10^10 pfu/ml, anti-M13-HRP/TMB
[10] = target: T1, human TIGIT (human); experiment: phage ELISA on coated TIGIT (4 ug/ml), phage 1.2 x 10^10 pfu/ml, anti-M13-HRP/TMB
[11] = target: T2, human CD96 (human); experiment: phage ELISA on coated CD96 (4 ug/ml), phage 1.2 x 10^10 pfu/ml, anti-M13-HRP/TMB
[12] = target: T1, human TIGIT (human); experiment: phage ELISA on coated TIGIT (4 ug/ml), phage 1.5 x 10^9 pfu/ml, anti-M13-HRP/TMB
[13] = target: T1, human TIGIT (human); experiment: phage ELISA on coated TIGIT (4 ug/ml), phage 0 pfu/ml (no phage, background), anti-M13-HRP/TMB
[14] = target: T2, human CD96 (human); experiment: phage ELISA on coated CD96 (4 ug/ml), phage 1.5 x 10^9 pfu/ml, anti-M13-HRP/TMB
[15] = target: T1, human TIGIT (human); experiment: phage ELISA on coated TIGIT (4 ug/ml), phage 9 x 10^7 pfu/ml, anti-M13-HRP/TMB
[16] = target: T2, human CD96 (human); experiment: phage ELISA on coated CD96 (4 ug/ml), phage 4.8 x 10^8 pfu/ml (so in the source), anti-M13-HRP/TMB
[17] = target: T2, human CD96 (human); experiment: phage ELISA on coated CD96 (4 ug/ml), phage 1 x 10^11 pfu/ml, anti-M13-HRP/TMB
[18] = target: T1, human TIGIT (human); experiment: phage ELISA on coated TIGIT (4 ug/ml), phage 2.5 x 10^10 pfu/ml, anti-M13-HRP/TMB
[19] = target: T2, human CD96 (human); experiment: phage ELISA on coated CD96 (4 ug/ml), phage 6 x 10^9 pfu/ml, anti-M13-HRP/TMB
[20] = target: T1, human TIGIT (human); experiment: phage ELISA on coated TIGIT (4 ug/ml), phage 7.5 x 10^8 pfu/ml, anti-M13-HRP/TMB
[21] = target: T2, human CD96 (human); experiment: phage ELISA on coated CD96 (4 ug/ml), phage 7.5 x 10^8 pfu/ml, anti-M13-HRP/TMB
[22] = target: T1, human TIGIT (human); experiment: phage ELISA on coated TIGIT (4 ug/ml), phage 4.8 x 10^8 pfu/ml (so in the source), anti-M13-HRP/TMB
[23] = target: T1, human TIGIT (human); experiment: phage ELISA on coated TIGIT (4 ug/ml), phage 3.7 x 10^8 pfu/ml, anti-M13-HRP/TMB
[24] = target: T2, human CD96 (human); experiment: phage ELISA on coated CD96 (4 ug/ml), phage 3 x 10^9 pfu/ml, anti-M13-HRP/TMB
[25] = target: BSA (UniProt P02769); experiment: phage ELISA on coated BSA, phage 3.7 x 10^8 pfu/ml, anti-M13-HRP/TMB
UniProt P02769, sequence (P02769 25-607 limits assumed): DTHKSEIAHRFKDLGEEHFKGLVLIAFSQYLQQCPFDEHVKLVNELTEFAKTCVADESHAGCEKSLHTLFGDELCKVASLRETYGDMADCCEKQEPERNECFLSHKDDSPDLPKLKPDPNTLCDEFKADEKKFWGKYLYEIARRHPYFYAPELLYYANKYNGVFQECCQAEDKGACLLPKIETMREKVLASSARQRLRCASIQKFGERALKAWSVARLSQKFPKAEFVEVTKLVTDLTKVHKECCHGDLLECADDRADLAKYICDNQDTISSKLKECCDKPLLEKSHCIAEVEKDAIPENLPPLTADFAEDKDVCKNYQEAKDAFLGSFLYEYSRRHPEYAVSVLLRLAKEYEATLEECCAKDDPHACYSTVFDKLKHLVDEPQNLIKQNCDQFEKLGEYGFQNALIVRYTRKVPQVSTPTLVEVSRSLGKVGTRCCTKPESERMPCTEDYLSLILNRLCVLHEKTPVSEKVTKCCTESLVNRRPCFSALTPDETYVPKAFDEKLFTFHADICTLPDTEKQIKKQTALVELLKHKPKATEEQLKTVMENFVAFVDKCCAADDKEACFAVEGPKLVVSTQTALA

[26] = target: BSA (UniProt P02769); experiment: phage ELISA on coated BSA, phage 9 x 10^7 pfu/ml, anti-M13-HRP/TMB
[27] = target: BSA (UniProt P02769); experiment: phage ELISA on coated BSA, phage 0 pfu/ml (no phage, background), anti-M13-HRP/TMB
[28] = target: BSA (UniProt P02769); experiment: phage ELISA on coated BSA, phage 5 x 10^10 pfu/ml, anti-M13-HRP/TMB
[29] = target: BSA (UniProt P02769); experiment: phage ELISA on coated BSA, phage 6 x 10^9 pfu/ml, anti-M13-HRP/TMB
[30] = target: BSA (UniProt P02769); experiment: phage ELISA on coated BSA, phage 3 x 10^9 pfu/ml, anti-M13-HRP/TMB
[31] = target: BSA (UniProt P02769); experiment: phage ELISA on coated BSA, phage 1.2 x 10^10 pfu/ml, anti-M13-HRP/TMB
[32] = target: BSA (UniProt P02769); experiment: phage ELISA on coated BSA, phage 7.5 x 10^8 pfu/ml, anti-M13-HRP/TMB
[33] = target: BSA (UniProt P02769); experiment: phage ELISA on coated BSA, phage 1 x 10^11 pfu/ml, anti-M13-HRP/TMB
[34] = target: BSA (UniProt P02769); experiment: phage ELISA on coated BSA, phage 4.8 x 10^8 pfu/ml (so in the source), anti-M13-HRP/TMB
[35] = target: BSA (UniProt P02769); experiment: phage ELISA on coated BSA, phage 1.5 x 10^9 pfu/ml, anti-M13-HRP/TMB
[36] = target: BSA (UniProt P02769); experiment: phage ELISA on coated BSA, phage 2.5 x 10^10 pfu/ml, anti-M13-HRP/TMB

## irrelevant phage
[1]
  phage ELISA signal: 0.07
[2]
  phage ELISA signal: 0.18
[3]
  phage ELISA signal: 0.05
[4]
  phage ELISA signal: 0.01
[5]
  phage ELISA signal: 0.31
[6]
  phage ELISA signal: 0.09
[7]
  phage ELISA signal: 0.24
[8]
  phage ELISA signal: 0.03
[9]
  phage ELISA signal: 0.31
[10]
  phage ELISA signal: 0.15
[11]
  phage ELISA signal: 0.08
[12]
  phage ELISA signal: 0.04
[13]
  phage ELISA signal: 0.04
[14]
  phage ELISA signal: 0.02
[15]
  phage ELISA signal: 0.04
[16]
  phage ELISA signal: 0.02
[17]
  phage ELISA signal: 0.59
[18]
  phage ELISA signal: 0.25
[19]
  phage ELISA signal: 0.08
[20]
  phage ELISA signal: 0.03
[21]
  phage ELISA signal: 0.02
[22]
  phage ELISA signal: 0.03
[23]
  phage ELISA signal: 0.03
[24]
  phage ELISA signal: 0.02

B1: anti-TIGIT clone C2 scFv (R8P1-C2), displayed on phage (scFv, part only; not given: linker, domain order, phage fusion, V domains shown, not shown: another chain or arm of the molecule; large carriers; small tags and cut ends)
VH: GVQLVESGGDLVKPAGSLRLSCVASGFTFSNYGMSWVRQAPGKGLQWVASIASGGSATAYADAVKGRFTLSRDDAKNTLYLQMNNLRTEDTSMYYCVAPGFQYWGQGTLVTVSS
VL: DIVMTQTPLSLSVSPGETASISCKASQSLLHSNGNTYLFWFRQKSGQSPQRLIYKVSNRDPGVPDRLSGSGSGTDFTLRISRVEADDAGVYYCGQGIQIPRTFGQGTKLEIK
[1]
  phage ELISA signal: 2.52
[25]
  phage ELISA signal: 0.02
[26]
  phage ELISA signal: 0.03
[27]
  phage ELISA signal: 0.04
[6]
  phage ELISA signal: 2.58
[28]
  phage ELISA signal: 0.04
[7]
  phage ELISA signal: 2.05
[9]
  phage ELISA signal: 2.53
[10]
  phage ELISA signal: 2.54
[29]
  phage ELISA signal: 0.03
[30]
  phage ELISA signal: 0.02
[31]
  phage ELISA signal: 0.04
[32]
  phage ELISA signal: 0.01
[12]
  phage ELISA signal: 2.34
[13]
  phage ELISA signal: 0.03
[15]
  phage ELISA signal: 0.79
[18]
  phage ELISA signal: 2.66
[33]
  phage ELISA signal: 0.07
[20]
  phage ELISA signal: 1.99
[34]
  phage ELISA signal: 0.02
[35]
  phage ELISA signal: 0.02
[22]
  phage ELISA signal: 1.21
[36]
  phage ELISA signal: 0.04
[23]
  phage ELISA signal: 1.61

B2: anti-CD96 clone G1 scFv (R7P1-G1), displayed on phage (scFv, part only; not given: linker, domain order, phage fusion, V domains shown, not shown: another chain or arm of the molecule; large carriers; small tags and cut ends)
VH: EVQLVESGGDLVKPAGSLRLSCVASGFPFSDSDMNWVRQAPGKGLQWVAGIDEGATDTGYADAVKGRFTISRDDAKNTLYLQMNSLRADDTAMYYCAAGGNFAYWGQGTLVTVSS
VL: DIVMTQTPLSLSVSPGEPASISCKASQSLLHSNGNTYLYWFRQKPGQSPQGLIYLVSKRFSWVPDRFSGSGSGTDFTLRISRVEADDAGLYYCGQGIQYPYTFSQGTKLEIK
[2]
  phage ELISA signal: 2.65
[3]
  phage ELISA signal: 0.05
[4]
  phage ELISA signal: 0.95
[25]
  phage ELISA signal: 0.02
[26]
  phage ELISA signal: 0.03
[5]
  phage ELISA signal: 2.68
[27]
  phage ELISA signal: 0.05
[28]
  phage ELISA signal: 0.04
[8]
  phage ELISA signal: 0.38
[29]
  phage ELISA signal: 0.02
[30]
  phage ELISA signal: 0.02
[11]
  phage ELISA signal: 2.59
[31]
  phage ELISA signal: 0.02
[32]
  phage ELISA signal: 0.01
[14]
  phage ELISA signal: 1.73
[16]
  phage ELISA signal: 0.63
[17]
  phage ELISA signal: 2.61
[33]
  phage ELISA signal: 0.06
[19]
  phage ELISA signal: 2.28
[34]
  phage ELISA signal: 0.01
[35]
  phage ELISA signal: 0.02
[21]
  phage ELISA signal: 1.36
[36]
  phage ELISA signal: 0.03
[24]
  phage ELISA signal: 2.11
